From patent US20120322725A1 (INDIANA UNIVERSITY RESEARCH AND TECHNOLOGY, published 2012)
Several values for one entry are separate records, joined by “and”; a condition that tells them apart may be missing. Identical values can stand only once. Square brackets hold non-standard residues; d marks the D form. Ends that are not written are not given here. * marks the point of attachment. MCA = alpha-methylhydrocinnamic acid (2-methyl-3-phenylpropanoic acid); PLA = 3-phenyllactic acid (2-hydroxy-3-phenylpropanoic acid); PhLac = O=C(O)[C@@H](O)Cc1ccccc1; Carboxymethyl = O=C(O)C*

B1: [desHis^1, Leu^4, hCys^9(SO3^-), Phe^25, Leu^27]Glucagon-NH2 (peptide)
peptide: SQLTFTSXYSKYLDSRRAQDFVQFLLNT
HELM: PEPTIDE1{S.Q.L.T.F.T.S.[O=C([C@H](CCS(=O)(=O)O)N[*:1])[*:2]].Y.S.K.Y.L.D.S.R.R.A.Q.D.F.V.Q.F.L.L.N.T.[am]}$$$$V2.0; N-terminus assumed
SMILES: CC(C)C[C@H](NC(=O)[C@H](Cc1ccc(O)cc1)NC(=O)[C@H](CCCCN)NC(=O)[C@H](CO)NC(=O)[C@H](Cc1ccc(O)cc1)NC(=O)[C@H](CCS(=O)(=O)O)NC(=O)[C@H](CO)NC(=O)[C@@H](NC(=O)[C@H](Cc1ccccc1)NC(=O)[C@@H](NC(=O)[C@H](CC(C)C)NC(=O)[C@H](CCC(N)=O)NC(=O)[C@@H](N)CO)[C@@H](C)O)[C@@H](C)O)C(=O)N[C@@H](CC(=O)O)C(=O)N[C@@H](CO)C(=O)N[C@@H](CCCNC(=N)N)C(=O)N[C@@H](CCCNC(=N)N)C(=O)N[C@@H](C)C(=O)N[C@@H](CCC(N)=O)C(=O)N[C@@H](CC(=O)O)C(=O)N[C@@H](Cc1ccccc1)C(=O)N[C@H](C(=O)N[C@@H](CCC(N)=O)C(=O)N[C@@H](Cc1ccccc1)C(=O)N[C@@H](CC(C)C)C(=O)N[C@@H](CC(C)C)C(=O)N[C@@H](CC(N)=O)C(=O)N[C@H](C(N)=O)[C@@H](C)O)C(C)C
B2: [hGlu^9]Glucagon(aa6-29)-NH2 (peptide)
peptide: FTSXYSKYLDSRRAQDFVQWLMNT
HELM: PEPTIDE1{F.T.S.[O=C(O)CCC[C@H](N[*:1])C(=O)[*:2]].Y.S.K.Y.L.D.S.R.R.A.Q.D.F.V.Q.W.L.M.N.T.[am]}$$$$V2.0; N-terminus assumed
SMILES: CSCC[C@H](NC(=O)[C@H](CC(C)C)NC(=O)[C@H](Cc1c[nH]c2ccccc12)NC(=O)[C@H](CCC(N)=O)NC(=O)[C@@H](NC(=O)[C@H](Cc1ccccc1)NC(=O)[C@H](CC(=O)O)NC(=O)[C@H](CCC(N)=O)NC(=O)[C@H](C)NC(=O)[C@H](CCCNC(=N)N)NC(=O)[C@H](CCCNC(=N)N)NC(=O)[C@H](CO)NC(=O)[C@H](CC(=O)O)NC(=O)[C@H](CC(C)C)NC(=O)[C@H](Cc1ccc(O)cc1)NC(=O)[C@H](CCCCN)NC(=O)[C@H](CO)NC(=O)[C@H](Cc1ccc(O)cc1)NC(=O)[C@H](CCCC(=O)O)NC(=O)[C@H](CO)NC(=O)[C@@H](NC(=O)[C@@H](N)Cc1ccccc1)[C@@H](C)O)C(C)C)C(=O)N[C@@H](CC(N)=O)C(=O)N[C@H](C(N)=O)[C@@H](C)O
notes: also called [hE^9]Glucagon(aa6-29)-NH2; peptide no
B3: [(CSA-1)^9]Glucagon(aa6-29)-NH2 (peptide)
peptide: FTSC(Carboxymethyl)YSKYLDSRRAQDFVQWLMNT-NH2
modifications: N-terminus assumed
SMILES: CSCC[C@H](NC(=O)[C@H](CC(C)C)NC(=O)[C@H](Cc1c[nH]c2ccccc12)NC(=O)[C@H](CCC(N)=O)NC(=O)[C@@H](NC(=O)[C@H](Cc1ccccc1)NC(=O)[C@H](CC(=O)O)NC(=O)[C@H](CCC(N)=O)NC(=O)[C@H](C)NC(=O)[C@H](CCCNC(=N)N)NC(=O)[C@H](CCCNC(=N)N)NC(=O)[C@H](CO)NC(=O)[C@H](CC(=O)O)NC(=O)[C@H](CC(C)C)NC(=O)[C@H](Cc1ccc(O)cc1)NC(=O)[C@H](CCCCN)NC(=O)[C@H](CO)NC(=O)[C@H](Cc1ccc(O)cc1)NC(=O)[C@H](CSCC(=O)O)NC(=O)[C@H](CO)NC(=O)[C@@H](NC(=O)[C@@H](N)Cc1ccccc1)[C@@H](C)O)C(C)C)C(=O)N[C@@H](CC(N)=O)C(=O)N[C@H](C(N)=O)[C@@H](C)O
notes: also called [C^9(SCH2COOH)]Glucagon(aa6-29)-NH2; peptide no
B4: [Lys^9]Glucagon(aa6-29)-NH2 (peptide)
peptide: FTSKYSKYLDSRRAQDFVQWLMNT-NH2
notes: also called [K^9]Glucagon(aa6-29)-NH2; peptide no
B5: [(CSA-2)^9]Glucagon(aa6-29)-NH2 (peptide)
peptide: FTSCYSKYLDSRRAQDFVQWLMNT
HELM: PEPTIDE1{F.T.S.[O=C(O)CCSC[C@H](N[*:1])C(=O)[*:2]].Y.S.K.Y.L.D.S.R.R.A.Q.D.F.V.Q.W.L.M.N.T.[am]}$$$$V2.0; N-terminus assumed
SMILES: CSCC[C@H](NC(=O)[C@H](CC(C)C)NC(=O)[C@H](Cc1c[nH]c2ccccc12)NC(=O)[C@H](CCC(N)=O)NC(=O)[C@@H](NC(=O)[C@H](Cc1ccccc1)NC(=O)[C@H](CC(=O)O)NC(=O)[C@H](CCC(N)=O)NC(=O)[C@H](C)NC(=O)[C@H](CCCNC(=N)N)NC(=O)[C@H](CCCNC(=N)N)NC(=O)[C@H](CO)NC(=O)[C@H](CC(=O)O)NC(=O)[C@H](CC(C)C)NC(=O)[C@H](Cc1ccc(O)cc1)NC(=O)[C@H](CCCCN)NC(=O)[C@H](CO)NC(=O)[C@H](Cc1ccc(O)cc1)NC(=O)[C@H](CSCCC(=O)O)NC(=O)[C@H](CO)NC(=O)[C@@H](NC(=O)[C@@H](N)Cc1ccccc1)[C@@H](C)O)C(C)C)C(=O)N[C@@H](CC(N)=O)C(=O)N[C@H](C(N)=O)[C@@H](C)O
notes: also called [C^9(SCH2CH2COOH)]Glucagon(aa6-29)-NH2; peptide no

Molecular target: T1, glucagon receptor (UniProt P47871 26-477, limits assumed)
Assay: cell-based or functional assay

T1 sequence (P47871 26-477 limits assumed): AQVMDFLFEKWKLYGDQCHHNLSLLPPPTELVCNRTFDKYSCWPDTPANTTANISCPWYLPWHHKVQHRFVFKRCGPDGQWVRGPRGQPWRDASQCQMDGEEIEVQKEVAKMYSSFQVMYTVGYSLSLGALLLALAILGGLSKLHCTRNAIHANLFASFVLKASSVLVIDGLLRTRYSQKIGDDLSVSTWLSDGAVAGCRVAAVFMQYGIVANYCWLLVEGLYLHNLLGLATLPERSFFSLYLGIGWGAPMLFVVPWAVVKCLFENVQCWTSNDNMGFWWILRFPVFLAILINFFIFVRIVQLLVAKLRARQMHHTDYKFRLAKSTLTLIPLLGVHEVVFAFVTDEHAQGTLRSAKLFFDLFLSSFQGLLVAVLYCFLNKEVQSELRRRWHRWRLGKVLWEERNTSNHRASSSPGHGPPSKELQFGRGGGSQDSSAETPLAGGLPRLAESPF

Binder | cAMP Induction EC50 | cAMP Inhibition IC50
SQGTFTSEYSKYLDSRRAQDFVQFLLNT-NH2 [[desHis^1, Glu^9, Phe^25, Leu^27]Glucagon-NH2] | 81 nM | –
SQLTFTSEYSKYLDSRRAQDFVQWLMNT-NH2 (also called Cmpd) [[desHis^1, Leu^4, Glu^9]Glucagon-NH2] | 318 nM | 102 nM
B1 | 1610 nM | 4460 nM
SQGTTSDYSKYLDSRRAQDFVQWLMNT-NH2 (also called Cmpd) [[desHis^1, desPhe^6]Glucagon-NH2] | 1180 nM | –

Molecular target: T1, glucagon receptor
Assay: cell-based or functional assay
Remark: another data set of the same source

Binder | cAMP (I/A)50 | cAMP pA2
B2 | 2360 | 6.27
FTSDYSKYLDSRRAQDFVQWLMNT-NH2 (also called peptide no) [Glucagon(aa6-29)-NH2] | 1730 | 6.94
B3 | 506 | 6.68
B4 | 1990 | 6.58
B5 | 580 | 6.64

Molecular target: T1, glucagon receptor
Assay: cell-based or functional assay
Remark: another data set of the same source

Binder | cAMP IC50 | cAMP pA2
B2 | 472 nM | 6.27
FTSDYSKYLDSRRAQDFVQWLMNT-NH2 (also called peptide no) [Glucagon(aa6-29)-NH2] | 346 nM | 6.94
B3 | 101 nM | 6.68
B4 | 398 nM | 6.58
B5 | 116 nM | 6.64

Molecular target: T1, glucagon receptor
Assay: cell-based or functional assay
Remark: another data set of the same source

Binder | IC50(nM) (cAMP, inhibit 0.2 mM Glucagon)
{PLA}-TC(PEG 5 kDa)EYSKYLDSRRAQDFVQWLMNT-NH2 [[PLA6, C8(5kDaPEG), E9]Glucagon(aa6-29)-NH2] | 216 nM
{PLA}-TSEYSKYLDSRRAQDFVC(PEG 1.2 kDa)WLMNT-NH2 [[PLA6, E9,C24(1.2 kDaPEG)]Glucagon(aa6-29)-NH2] | 18 nM
C(PEG 20 kDa)FTSEYSKYLDSRRAQDFVQWLMNT-NH2 [[C5(20kDaPEG), E9]Glucagon(aa5-29)-NH2] | 976 nM
C(PEG 3.4 kDa)FTSEYSKYLDSRRAQDFVQWLMNT-NH2 (also: dimer: two chains joined by 3.4 kDa PEG at Cys5) [3.4kDaPEG-dimer[C5, E9]Glucagon(aa5-29)-NH2] | 1340 nM
C(PEG 5 kDa)FTSEYSKYLDSRRAQDFVQWLMNT-NH2 [[C5(5kDaPEG), E9]Glucagon(aa5-29)-NH2] | 1610 nM
C(PEG 1.2 kDa)FTSEYSKYLDSRRAQDFVQWLMNT-NH2 [[C5(1.2kDaPEG), E9]Glucagon(aa5-29)-NH2] | 2280 nM
[PhLac]TSEYSKYLDSRRAQDFVC(maleimido methoxyPEG 20 kDa)WLMNT-NH2 [[PLA6, E9, C24(20kDaPEG)]Glucagon(aa6-29)-NH2] | 126 nM
[PhLac]TC(maleimido methoxyPEG 20 kDa)EYSKYLDSRRAQDFVQWLMNT-NH2 [[PLA6, C8(20kDaPEG), E9]Glucagon(aa6-29)-NH2] | 236 nM and 92 nM
[PhLac]TSEYC(maleimido methoxyPEG 20 kDa)KYLDSRRAQDFVQWLMNT-NH2 [[PLA6, E9, C11(20kDaPEG)]Glucagon(aa6-29)-NH2] | 664 nM

Molecular target: T1, glucagon receptor
Assay: receptor binding, method not described

Binder | IC50
SQGTFTSEYSKYLDSRRAQDFVQFLLNT-NH2 [[desHis^1, Glu^9, Phe^25, Leu^27]Glucagon-NH2] | 12.6 nM
SQLTFTSEYSKYLDSRRAQDFVQWLMNT-NH2 (also called Cmpd) [[desHis^1, Leu^4, Glu^9]Glucagon-NH2] | 36.9 nM
SQGTTSDYSKYLDSRRAQDFVQWLMNT-NH2 (also called Cmpd) [[desHis^1, desPhe^6]Glucagon-NH2] | 130 nM

Molecular target: T1, glucagon receptor
Assay: receptor binding, method not described
Remark: another data set of the same source

Binder | IC50
B2 | 163 nM
FTSDYSKYLDSRRAQDFVQWLMNT-NH2 (also called peptide no) [Glucagon(aa6-29)-NH2] | 1670 nM
B3 | 107 nM
B4 | 3240 nM
B5 | 146 nM

Molecular target: T1, glucagon receptor
Assay: receptor binding, method not described
Remark: another data set of the same source

Binder | IC50
{PLA}-TC(PEG 1.2 kDa)EYSKYLDSRRAQDFVQWLMNT-NH2 [[PLA6, C8(1.2kDaPEG), E9]Glucagon(aa6-29)-NH2] | 220 nM
{PLA}-TC(PEG 5 kDa)EYSKYLDSRRAQDFVQWLMNT-NH2 [[PLA6, C8(5kDaPEG), E9]Glucagon(aa6-29)-NH2] | 948 nM
{PLA}-TSEYSKYLDSRRAQDFVC(PEG 1.2 kDa)WLMNT-NH2 [[PLA6, E9,C24(1.2 kDaPEG)]Glucagon(aa6-29)-NH2] | 4.7 nM
C(PEG 20 kDa)FTSEYSKYLDSRRAQDFVQWLMNT-NH2 [[C5(20kDaPEG), E9]Glucagon(aa5-29)-NH2] | 331 nM
C(PEG 3.4 kDa)FTSEYSKYLDSRRAQDFVQWLMNT-NH2 (also: dimer: two chains joined by 3.4 kDa PEG at Cys5) [3.4kDaPEG-dimer[C5, E9]Glucagon(aa5-29)-NH2] | 435 nM
C(PEG 5 kDa)FTSEYSKYLDSRRAQDFVQWLMNT-NH2 [[C5(5kDaPEG), E9]Glucagon(aa5-29)-NH2] | 634 nM
C(PEG 1.2 kDa)FTSEYSKYLDSRRAQDFVQWLMNT-NH2 [[C5(1.2kDaPEG), E9]Glucagon(aa5-29)-NH2] | 1080 nM
[MCA]TSEYSKYLDSRRAQDFVC(maleimido methoxyPEG 20 kDa)WLMNT-NH2 [[MCA6, E9, C24(20kDaPEG)]Glucagon(aa6-29)-NH2] | 208 nM
[PhLac]TSEYSKYLDSRRAQDFVC(maleimido methoxyPEG 20 kDa)WLMNT-NH2 [[PLA6, E9, C24(20kDaPEG)]Glucagon(aa6-29)-NH2] | 90 nM
[PhLac]TC(maleimido methoxyPEG 20 kDa)EYSKYLDSRRAQDFVQWLMNT-NH2 [[PLA6, C8(20kDaPEG), E9]Glucagon(aa6-29)-NH2] | 303 nM
[PhLac]TSEYC(maleimido methoxyPEG 20 kDa)KYLDSRRAQDFVQWLMNT-NH2 [[PLA6, E9, C11(20kDaPEG)]Glucagon(aa6-29)-NH2] | 776 nM

Molecular target: T1, glucagon receptor
Assay: receptor binding (named so for the same values in Table I), method not described

Binder | IC50
LTFTSEYSKYLDSRRAQDFVQWLMNT-NH2 (also called peptide no) [[Leu^4, Glu^9]Glucagon(aa4-29)-NH2] | 36.4 nM
B2 | 163 nM
FTSDYSKYLDSRRAQDFVQWLMNT-NH2 (also called peptide no) [Glucagon(aa6-29)-NH2] | 1890 nM
B3 | 107 nM
B4 | 5780 nM
B5 | 146 nM
